Measurements as given in the supplement of paper PMC10724198.
± gives the standard deviation of the averaged measurements.

system: Saccharomyces cerevisiae; assay: protein stability index of tFT-peptide fusion (C-terminal peptide) (PSI (0-1 scale)); higher = more stable (slower turnover); settings: genetic background: wild type; temperature: 30 C
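Also: PSI is a weighted mean of sequencing reads over stability bins, variants kept only with over 10 reads, mCherry proximal and sfGFP distal, peptide attached via GGGS linker.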

Row | Sequence | protein stability index
1 | KTKKTKRRHKAE | 0.662 ± 0.022
2 | ERLRSDSLSYDI | 0.714 ± 0.052
3 | EDFKTKQKKKKE | 0.709 ± 0.077
4 | GPPAGGTARSPM | 0.694 ± 0.029
5 | RNTKGIIKKKKE | 0.702 ± 0.042
6 | SHTAWEQRVPKQ | 0.729 ± 0.02
7 | CPLPGSRHLAPV | 0.742 ± 0.068
8 | FSSRLVFFFAAP | 0.667 ± 0.036
9 | TKQLKGEQERDG | 0.648 ± 0.031
10 | VRGKYNNGNKKM | 0.675 ± 0.013
11 | KGRSKHIKGKRR | 0.743 ± 0.033
12 | RVSGILQHFTSA | 0.7309 ± 0.0058
13 | GSTGRGEGSGVT | 0.664 ± 0.04
14 | QLGVVDVIIGAS | 0.679 ± 0.052
15 | LRRPSPPTPSPP | 0.86 ± 0.2
16 | RLVSIHDTRESL | 0.727 ± 0.012
17 | VARPEWWSGGGS | 0.727 ± 0.03
18 | GVVSSHVDMIGL | 0.668 ± 0.0067
19 | MRVKRVEVVRGG | 0.6903 ± 0.0061
20 | DKKPVQVIIIRK | 0.667 ± 0.1
21 | FLHPLTPSPPLA | 0.711 ± 0.096
22 | QKHTTKKTKTRY | 0.728 ± 0.037
23 | DLSNVITKMFVI | 0.6542 ± 0.0036
24 | TCTGAKHRCHVL | 0.677 ± 0.011
25 | LWKAGRIGTIWS | 0.714 ± 0.016
26 | VGCSGGRGAGVV | 0.649 ± 0.018

Row | Sequence | protein stability index
27 | AWGVCRPGGRGG | 0.681 ± 0.035
28 | GADGGLVSLGVS | 0.743 ± 0.026
29 | PHPWTSPPAPPP | 0.698 ± 0.022
30 | SHGELLLGPVFL | 0.748 ± 0.009
31 | ITNKKKIKDKQT | 0.593 ± 0.033
32 | VEVRVRCVGGRV | 0.703 ± 0.068
33 | SDTHYLAGELCT | 0.596 ± 0.034
34 | VLVYISDLKRSL | 0.689 ± 0.14
35 | RGGAGGRQGCGG | 0.746 ± 0.043
36 | GVWPVGWWCRGR | 0.748 ± 0.047
37 | PFSNFFFRLSFS | 0.665 ± 0.028
38 | SPPLNSFPPTPP | 0.62 ± 0.068
39 | PSPPPAPLHSPL | 0.704 ± 0.058
40 | PHAPSHLPSSLP | 0.712 ± 0.025
41 | PPLPPSPPFPPP | 0.653 ± 0.015
42 | PPPPAPPLPPPP | 0.707 ± 0.039
43 | PSLPPAYPSIAI | 0.737 ± 0.067
44 | LRIRSTSSPPRP | 0.74 ± 0.015
45 | GAGRYVLNPCCS | 0.678 ± 0.034
46 | QLMAYFDITYSS | 0.723 ± 0.045
47 | PPPCSFTRKRQR | 0.664 ± 0.014
48 | STFGVMVTHEMN | 0.727 ± 0.021
49 | FGFRLFLPSFSA | 0.6433 ± 0.0029
50 | VWGGGRGGGGKG | 0.619 ± 0.031
51 | TPQSLRDAHGSC | 0.662 ± 0.056
52 | VVIGCRRVLGCV | 0.583 ± 0.03

Row | Sequence | protein stability index
53 | RVVDEPRDFQVR | 0.6888 ± 0.0043
54 | LPHTRPLPPRVD | 0.704 ± 0.015
55 | KKKRRFTQEMDK | 0.684 ± 0.17
56 | GSLGVWKGCGEG | 0.652 ± 0.018
57 | LFLLPPLLPLPP | 0.7361 ± 0.00058
58 | GTDLKGFPFLTF | 0.688 ± 0.014
59 | SIDGFAFCVGGV | 0.737 ± 0.058
60 | WWEGSFRGGAVR | 0.592 ± 0.094
61 | LSPPRSAPPPPR | 0.699 ± 0.014
62 | LRDQEYAMRPPC | 0.693 ± 0.08
63 | ELSLSCPPLETP | 0.768 ± 0.034
64 | PASSAPDSSTAH | 0.7406 ± 0.0052
65 | SPRLSSCPPAGF | 0.749 ± 0.017
66 | IVFTPPSVTFHA | 0.825 ± 0.22
67 | SCLYPGLCLSYF | 0.674 ± 0.0069
68 | RACRISSIRVGI | 0.651 ± 0.014
69 | GPRGGGGWSCES | 0.7366 ± 0.0032
70 | LRKVIGVSFCLA | 0.542 ± 0.049
71 | VYRIAEENRRWV | 0.738 ± 0.12
72 | FPWISPCCFTFP | 0.64 ± 0.042
73 | PPPPRRAPPPGT | 0.699 ± 0.021
74 | PPPPPPSLPPPS | 0.714 ± 0.015
75 | GPCQSPSLVLTC | 0.555 ± 0.012
76 | PQSVMFFGAPVW | 0.687 ± 0.034
77 | PPSPRPVPPPCH | 0.705 ± 0.072
78 | GWGGGAAQKCGQ | 0.7 ± 0.039

Row | Sequence | protein stability index
79 | LGLCSFGCERCH | 0.704 ± 0.015
80 | TQYINTAHKELK | 0.6677 ± 0.00083
81 | SGLQPADMVFFR | 0.749 ± 0.056
82 | QRGLERVVVGGI | 0.667 ± 0.016
83 | PLPPPPPPPLPP | 0.737 ± 0.011
84 | PPSPPRPHFPSL | 0.739 ± 0.042
85 | GGVGRGVGRGWG | 0.671 ± 0.03
86 | NKIDAGTPEKHR | 0.626 ± 0.041
87 | DMTVICDVAGQT | 0.652 ± 0.019
88 | WCRHREYFYGSN | 0.657 ± 0.032
89 | GGWPWGGFLVDR | 0.735 ± 0.012
90 | PPATRSLSAASP | 0.722 ± 0.0095
91 | RIVLLICPYPVL | 0.554 ± 0.056
92 | AGYENKAENKSV | 0.656 ± 0.011
93 | INKKETKKNKIK | 0.612 ± 0.073
94 | IGRWHCPDLPRH | 0.653 ± 0.12
95 | GKEGKGEAGIGE | 0.686 ± 0.024
96 | LFRPNWLPLSNN | 0.634 ± 0.018
97 | RTHLVRRHGEAR | 0.697 ± 0.02
98 | CHRLGRTTGRIR | 0.692 ± 0.026
99 | PPPVRFPSLPLA | 0.8189 ± 0.0061
100 | LSPTRPATRSPP | 0.6826 ± 0.0014
101 | IHLGVLTAFGLS | 0.701 ± 0.032
102 | PTLLRRPLPNLG | 0.73 ± 0.02
103 | LCPVLRSPFFLF | 0.55128 ± 0.00052
104 | LRPASPVGRQTQ | 0.691 ± 0.04

Row | Sequence | protein stability index
105 | GGGGGGGGRRPG | 0.616 ± 0.0097
106 | QLFTAKHSDPLD | 0.7444 ± 0.0023
107 | SSMCYARIIWWG | 0.596 ± 0.039
108 | VFPWRDSNLYAS | 0.713 ± 0.021
109 | SVCRVSVKKECR | 0.701 ± 0.12
110 | VCFLFGLVGFGS | 0.597 ± 0.0085
111 | IQGRFYPLLEAH | 0.606 ± 0.032
112 | CVWCSGRSPCYV | 0.634 ± 0.047
113 | PELLGVARDGFR | 0.65 ± 0.0097
114 | VAPDSARVFHFV | 0.64 ± 0.025
115 | GGDFYEGVKNGK | 0.714 ± 0.11
116 | LRNNKIKLIQKK | 0.7809 ± 0.0034
117 | LKKSYSTPFTHY | 0.69 ± 0.048
118 | SLTLVCRKYILL | 0.633 ± 0.024
119 | PPATLIWAWFFR | 0.67 ± 0.022
120 | SIRHPYEFFARS | 0.738 ± 0.031
121 | LSGVSGALVFVG | 0.676 ± 0.047
122 | CLAPPTFAPSSL | 0.752 ± 0.081
123 | CVIGRDGTDLWV | 0.685 ± 0.0089
124 | DAGWTRGGEGVW | 0.739 ± 0.032
125 | VWGERPRFGGWG | 0.691 ± 0.038
126 | PPPLTVPLLSPP | 0.662 ± 0.046
127 | VSYEFHTRVSKN | 0.677 ± 0.039
128 | SLRRLSPLPLAS | 0.7 ± 0.04
129 | SAPRRPPLIFPG | 0.672 ± 0.11
130 | YVKHTVKVSGHK | 0.665 ± 0.0098

Row | Sequence | protein stability index
131 | VFLRGSVLGLCI | 0.606 ± 0.034
132 | EINIMKIIYRKI | 0.666 ± 0.044
133 | VSLVGGLGFGVG | 0.553 ± 0.028
134 | SRFQFCCCLFFF | 0.578 ± 0.0074
135 | DGGAGWLGLLGG | 0.713 ± 0.034
136 | RPGAFDNGLTLP | 0.682 ± 0.055
137 | SSPLPPAPPTAS | 0.587 ± 0.1
138 | KRNSLSLIPQII | 0.655 ± 0.071
139 | GASSPVEVGAAG | 0.695 ± 0.022
140 | GFSDCGLYRVSC | 0.713 ± 0.0097
141 | SRGLVVYMDALR | 0.692 ± 0.028
142 | LPPGFPYLSQLP | 0.666 ± 0.052
143 | YSHSRVNPDAWG | 0.669 ± 0.11
144 | SRVVCVGGRLFG | 0.702 ± 0.045
145 | IRKNLIPLTIFT | 0.538 ± 0.028
146 | PLPPTPPPLAPP | 0.644 ± 0.086
147 | GCLGVRMFRVGG | 0.59 ± 0.015
148 | NKRKNVFESTNA | 0.678 ± 0.019
149 | GVNDRLIKMSCA | 0.667 ± 0.033
150 | WDYQGIIFVAGG | 0.687 ± 0.0075
151 | KRLNRVHRSTKV | 0.687 ± 0.021
152 | FRRLVTGVLSIF | 0.559 ± 0.028
153 | DISSSILEIFTS | 0.7031 ± 0.0032
154 | SLLYIQDFVSGV | 0.683 ± 0.019
155 | SFVGGKLRTEYS | 0.71 ± 0.068
156 | WMAFRRIPTWSG | 0.679 ± 0.073

Row | Sequence | protein stability index
157 | PGPLVFPLPLAC | 0.578 ± 0.036
158 | LPLRLVPLFSPP | 0.722 ± 0.025
159 | TPLAPASPPAAR | 0.717 ± 0.056
160 | QRCWSRKGVNSL | 0.67 ± 0.025
161 | EQDDGARMIRRV | 0.683 ± 0.027
162 | GAHRRDTYTVIG | 0.682 ± 0.011
163 | LRHSCSTYRIFS | 0.683 ± 0.028
164 | CGCVSWYYGALD | 0.628 ± 0.0073
165 | PLPPPPRPRPPL | 0.721 ± 0.04
166 | GRSYCTLVFVWK | 0.582 ± 0.011
167 | KKKKTKKKTNSI | 0.727 ± 0.0076
168 | LTFFRSSPPRPY | 0.739 ± 0.031
169 | ASGRARVIGVCR | 0.704 ± 0.029
170 | LGGGGRWVVPGA | 0.722 ± 0.029
171 | YHPPLDHHQCTE | 0.648 ± 0.063
172 | PRPLTRPVPPLS | 0.68 ± 0.13
173 | PLPPTFPSPLPP | 0.665 ± 0.008
174 | LEGGACFGVCEW | 0.6956 ± 0.0048
175 | DCRELCQSEVMG | 0.643 ± 0.1
176 | LWPQFPPRQLVD | 0.755 ± 0.069
177 | AFASVLPSSLSS | 0.641 ± 0.085
178 | IRPPVLTDAIHS | 0.708 ± 0.013
179 | RLTKKKKEIKRR | 0.717 ± 0.014
180 | DDGGQPKVLLCV | 0.6688 ± 0.0011
181 | PSAPFPPVYPLH | 0.687 ± 0.017
182 | RRTTTDSPRADR | 0.708 ± 0.047

Row | Sequence | protein stability index
183 | EVYAGGESDVMS | 0.637 ± 0.029
184 | PLTPPLPPSPPP | 0.711 ± 0.026
185 | KKKKKQTKGKNK | 0.688 ± 0.12
186 | GVGFGGGGVWME | 0.746 ± 0.031
187 | VRGRGSGGGVAG | 0.675 ± 0.065
188 | QHHDPYPHQRSP | 0.686 ± 0.023
189 | PPPSPDPPLTPF | 0.723 ± 0.06
190 | PSPSPLPASFRL | 0.683 ± 0.11
191 | EKCCGAAVMARC | 0.561 ± 0.015
192 | KRKREKKEKADA | 0.66 ± 0.043
193 | HRCLSRTVSPPS | 0.671 ± 0.04
194 | PSYSPPPHPVHR | 0.686 ± 0.05
195 | ALYISLRELACP | 0.548 ± 0.018
196 | ISGTDGVRHFLG | 0.662 ± 0.018
197 | GFALSFCFCFPL | 0.558 ± 0.029
198 | GRSGSVGGIRGR | 0.727 ± 0.04
199 | PSSPHTAIRHPL | 0.671 ± 0.02
200 | PPAAHPFAPFPS | 0.71 ± 0.014
201 | RKTPIKTKKSAR | 0.687 ± 0.09
202 | FSSSMFPPPLFV | 0.662 ± 0.0056
